The assay has as its system mice. Description: CXCL1-induced itch, subcutaneous injection in mice. It counts as in vivo. The text has this: CXCL1 is the mouse homologue for human Interleukin-8, which is increased in several inflammatory skin disorders including psoriasis and atopic dermatitis. […] Importantly, CXCL1-induced itch is entirely dependent on neutrophils (FIG. 1B). […] In addition, loss of TRPA1 results in reduced CXCL1 expression in skin. Blocking/ablation of the high-affinity LTB4 receptor, BLT1, also results in reduction of CXCL1-induced itch (FIG. 1C). Both LTB4 and reactive oxygen species (ROS) are produced by neutrophils and have been proposed to directly activate neurons and induce itch. It is shown here that neutrophils also play a key role in chronic itch. In a mouse model of atopic dermatitis, depletion of neutrophils during induction of itch drastically reduces itch and inflammatory responses (FIG. 1D). It is shown here that CXCL1 is increased in multiple mouse models of chronic itch, and LTB4 is increased in skin of mice with atopic dermatitis. It is proposed that neutrophils activate sensory neurons through the ion channel TRPA1 in a CXCL1/BLT1/LTB4-dependent fashion (FIG. 1E).
FIG. 1A-1E. […] (D) Depletion of neutrophils in a mouse model of atopic dermatitis greatly reduces itch. (E) Model showing proposed interactions. Atopic dermatitis results in increased levels of IL8 (humans) or CXCL1 (mice) that recruits neutrophils. Neutrophils activate sensory neurons to promote itch in a TRPA1 and BLT1-dependent manner. For all data, one-way ANOVA was performed with a Tukey-Kramer post hoc statistical analysis. Tukey-Kramer values are reported and only p<0.05 were considered significant; **=p<0.005; ***=p<0.0005; n.s.=not significant.

Entries after “also recorded” stand apart in the source; their conditions may differ.

B1: CXCL1: a neutrophil chemoattractant and natural ligand for CXCR2; the mouse homologue for human Interleukin-8 (protein, UniProt P12850 25-96, looked up)
Growth-regulated alpha protein: APIANELRCQCLQTMAGIHLKNIQSLKVLPSGPHCTQTEVIATLKNGREACLDPEAPLVQKIVQKMLKGVPK
Take B1: the CXCL1-induced itch entry (depletion of neutrophils (FIG. 1B)) was “abolishes CXCL1-induced itch”. The itch result (injected subcutaneously in mice (FIG. 1A)) is “robustly induces itch; also recorded: induces robust itch”. Under “mice lacking TRPA1 (FIG. 1A)”, the “itch responses to CXCL1” value is reported as “reduced itch responses”. The “itch responses to CXCL1 injection” value (mice lacking the LTB4 receptor (BLT1) (FIG. 1C)) is on record as “reduced itch responses”.

For the origin of these results see US20190216790A1, “Methods for Treating Pruritis” (The Regents of the University of California, priority 2016, published 2019).
